Results published in patent US11833164B2, “Methods of treating Fabry disease in patients having a mutation in the GLA gene” (Amicus Therapeutics, Inc., priority 2019, dated 2023).
Substitutions are numbered along the chain they refer to. Names may count otherwise.

B1: D315G (protein)
chain: MQLRNPELHLGCALALRFLALVSWDIPGARALDNGLARTPTMGWLHWERFMCNLDCQEEPDSCISEKLFMEMAELMVSEGWKDAGYEYLCIDDCWMAPQRDSEGRLQADPQRFPHGIRQLANYVHSKGLKLGIYADVGNKTCAGFPGSFGYYDIDAQTFADWGVDLLKFDGCYCDSLENLADGYKHMSLALNRTGRSIVYSCEWPLYMWPFQKPNYTEIRQYCNHWRNFADIDDSWKSIKSILDWTSFNQERIVDVAGPGGWNDPDMLVIGNFGLSWNQQVTQMALWAIMAAPLFMSNDLRHISPQAKALLQDKGVIAINQDPLGKQGYQLRQGDNFEVWERPLSGLAWAVAMINRQEIGGPRSYTIAVASLGKGVACNPACFITQLLPVKRKLGFYEWTSRLRSHINPTGTVLLQLENTMQMSLKDLL
B2: A318V (protein)
chain: B1 chain with G315D, A318V
B3: N320T (protein)
chain: B1 chain with G315D, N320T
B4: V316L (protein)
chain: B1 chain with G315D, V316L
B5: Q321K (protein)
chain: B1 chain with G315D, Q321K
B6: I317L (protein)
chain: B1 chain with G315D, I317L
B7: V316A (protein)
chain: B1 chain with G315D, V316A
B8: D315N (protein)
chain: B1 chain with G315N
B9: I319M (protein)
chain: B1 chain with G315D, I319M
B10: I317M (protein)
chain: B1 chain with G315D, I317M
B11: A318D (protein)
chain: B1 chain with G315D, A318D
B12: D315Y (protein)
chain: B1 chain with G315Y
B13: I317V (protein)
chain: B1 chain with G315D, I317V
B14: A318P (protein)
chain: B1 chain with G315D, A318P
B15: D315H (protein)
chain: B1 chain with G315H
B16: A318T (protein)
chain: B1 chain with G315D, A318T
B17: D315V (protein)
chain: B1 chain with G315V
B18: N320S (protein)
chain: B1 chain with G315D, N320S

Tested on: mutant form of α-Gal A expressed in HEK-293 cells
Assay: HEK assay (GLP HEK / Migalastat Amenability Assay): α-Gal A activity in lysates of transiently transfected HEK-293 cells incubated with or without 10 μM migalastat
Assay type: cell-based, human
Details: for Absolute increase (% WT) / Relative increase: 10 μM migalastat versus baseline; for Baseline α-Gal A activity (% WT): absence of migalastat; for Baseline α-Gal A activity (% WT) / 10 μM migalastat α-Gal A activity (% WT): percentage of baseline wild-type α-Gal A activity; for Baseline α-Gal A activity (% WT) / Baseline α-Gal A activity / 10 μM migalastat α-Gal A activity / 10 μM migalastat α-Gal A activity (% WT): mean ± SEM; for Baseline α-Gal A activity / 10 μM migalastat α-Gal A activity: lysates of HEK-293 cells transiently transfected with the mutant form; for Baseline α-Gal A activity: incubated 5 days in absence of migalastat; for 10 μM migalastat α-Gal A activity: incubated 5 days with 10 μM migalastat; for 10 μM migalastat α-Gal A activity (% WT): with 10 μM migalastat, 5 days
How it was run: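 HEK-293 cells transiently transfected with mutant α-Gal A and incubated with or without 10 μM migalastat; lysate activity given as nmol free 4-MU released per mg protein per hour. Values are mean±SEM.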

| Molecule | Absolute increase (% WT) | Relative increase | Baseline α-Gal A activity (% WT) | Baseline α-Gal A activity | 10 μM migalastat α-Gal A activity | 10 μM migalastat α-Gal A activity (% WT) |
| --- | --- | --- | --- | --- | --- | --- |
| B1 | 23.6 % WT | 1.4 | 49.7 ± 3.7 % WT | 13326 ± 859 nmol/mg/h | 19115 ± 1697 nmol/mg/h | 73.3 ± 8 % WT |
| B2 | 16.5 % WT | 1.4 | 37.9 ± 2.1 % WT | 14603 ± 1377 nmol/mg/h | 19658 ± 1108 nmol/mg/h | 54.4 ± 3.5 % WT |
| B3 | 21.8 % WT | 2.0 | 21.6 ± 1.5 % WT | 5597 ± 442 nmol/mg/h | 11276 ± 658 nmol/mg/h | 43.3 ± 1.9 % WT |
| B4 | 33.9 % WT | 1.7 | 47.4 ± 3.9 % WT | 12854 ± 958 nmol/mg/h | 21812 ± 1450 nmol/mg/h | 81.3 ± 6.3 % WT |
| B5 | 32.0 % WT | 2.1 | 29.2 ± 2 % WT | 7590 ± 520 nmol/mg/h | 16046 ± 870 nmol/mg/h | 61.2 ± 2.4 % WT |
| B6 | 16.5 % WT | 1.3 | 54.4 ± 4.9 % WT | 14780 ± 1222 nmol/mg/h | 18770 ± 1141 nmol/mg/h | 70.9 ± 5.6 % WT |
| B7 | 22.7 % WT | 1.4 | 48.8 ± 4.1 % WT | 13166 ± 1029 nmol/mg/h | 18908 ± 1577 nmol/mg/h | 71.5 ± 7.1 % WT |
| B8 | 17.9 % WT | 1.5 | 34.1 ± 1.7 % WT | 8553 ± 425 nmol/mg/h | 13037 ± 869 nmol/mg/h | 52.1 ± 3.7 % WT |
| B9 | 9.4 % WT | 1.2 | 47.4 ± 2.2 % WT | 12191 ± 433 nmol/mg/h | 14802 ± 727 nmol/mg/h | 56.8 ± 2.3 % WT |
| B10 | 10.2 % WT | 11.7 | 1 ± 0.1 % WT | 340 ± 29 nmol/mg/h | 3988 ± 177 nmol/mg/h | 11.2 ± 0.8 % WT |
| B11 | 16.9 % WT | 1.4 | 42.5 ± 3.6 % WT | 15357 ± 1499 nmol/mg/h | 20838 ± 1817 nmol/mg/h | 59.4 ± 5.3 % WT |
| B12 | 14.2 % WT | 1.4 | 34.5 ± 3.5 % WT | 9198 ± 1179 nmol/mg/h | 12674 ± 1008 nmol/mg/h | 48.7 ± 2.4 % WT |
| B13 | 18.6 % WT | 1.3 | 55 ± 6.1 % WT | 14885 ± 1495 nmol/mg/h | 19927 ± 1565 nmol/mg/h | 73.6 ± 5.5 % WT |
| B14 | 6.5 % WT | 5.3 | 1.5 ± 0.2 % WT | 526 ± 42 nmol/mg/h | 2799 ± 174 nmol/mg/h | 8 ± 0.8 % WT |
| B15 | 17.4 % WT | 1.4 | 35.7 ± 2.8 % WT | 9791 ± 1077 nmol/mg/h | 14136 ± 1573 nmol/mg/h | 53.2 ± 5.5 % WT |
| B16 | 17.7 % WT | 1.3 | 45.2 ± 2.8 % WT | 16954 ± 1483 nmol/mg/h | 22296 ± 1232 nmol/mg/h | 62.9 ± 4.6 % WT |
| B17 | 24.8 % WT | 1.8 | 31.2 ± 3.6 % WT | 8191 ± 717 nmol/mg/h | 14580 ± 1235 nmol/mg/h | 56 ± 6 % WT |
| B18 | 23.9 % WT | 1.3 | 82.9 ± 4.5 % WT | 21562 ± 1285 nmol/mg/h | 28097 ± 1522 nmol/mg/h | 106.7 ± 3.9 % WT |
